Results taken from publication PMC2921846.

Target: PKCα-YFP (mouse) (UniProt P20444)
Experiment: FRET or BRET

## Erk-CFP (from UniProt P63085 1-358) (natural protein)
  FRET efficiency: 7.19%
